The target in this assay is platelet GPIIIa (integrin beta3) on platelets (human) (UniProt P05106). As to the kind of experiment: cell-based or functional assay.
Chain of platelet GPIIIa (integrin beta3) on platelets (human) (P05106 27-788): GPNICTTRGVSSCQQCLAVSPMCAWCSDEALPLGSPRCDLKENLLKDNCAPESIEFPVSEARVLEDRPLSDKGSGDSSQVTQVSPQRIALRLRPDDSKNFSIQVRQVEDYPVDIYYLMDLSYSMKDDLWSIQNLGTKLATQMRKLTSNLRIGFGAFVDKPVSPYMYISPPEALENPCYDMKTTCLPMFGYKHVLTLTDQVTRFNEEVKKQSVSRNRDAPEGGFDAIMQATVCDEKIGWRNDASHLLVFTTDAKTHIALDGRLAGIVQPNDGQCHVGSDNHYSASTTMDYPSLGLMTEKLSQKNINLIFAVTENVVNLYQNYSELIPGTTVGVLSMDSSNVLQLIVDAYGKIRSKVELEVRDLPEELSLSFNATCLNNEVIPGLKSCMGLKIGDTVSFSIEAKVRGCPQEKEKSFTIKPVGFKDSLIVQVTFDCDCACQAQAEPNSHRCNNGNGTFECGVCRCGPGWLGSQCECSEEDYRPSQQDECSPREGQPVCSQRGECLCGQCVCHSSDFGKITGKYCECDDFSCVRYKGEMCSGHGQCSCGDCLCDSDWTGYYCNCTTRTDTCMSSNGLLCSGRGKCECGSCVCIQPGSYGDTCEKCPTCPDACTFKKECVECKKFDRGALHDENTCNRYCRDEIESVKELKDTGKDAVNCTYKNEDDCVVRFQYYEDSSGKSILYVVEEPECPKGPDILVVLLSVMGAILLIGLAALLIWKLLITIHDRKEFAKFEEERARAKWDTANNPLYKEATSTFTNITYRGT

Regarding “ADAMTS-18 66 amino acid fragment (1156-1221) (from UniProt Q8TE60 1156-1221) (ligand)”, the platelet fragmentation came to 85 µM.

These data come from patent US20110045008A1.
